Laboratory results: patent US20250376528A1

Molecular target: human IL-10 receptor (hIL-10R α and β chains) on HEK-Blue IL-10 reporter cells (human) (UniProt Q13651)
Assay: cell-based or functional assay

human IL-10 receptor (hIL-10R α and β chains) on HEK-Blue IL-10 reporter cells (human), sequence (Q13651 22-578, chain 1 of 2): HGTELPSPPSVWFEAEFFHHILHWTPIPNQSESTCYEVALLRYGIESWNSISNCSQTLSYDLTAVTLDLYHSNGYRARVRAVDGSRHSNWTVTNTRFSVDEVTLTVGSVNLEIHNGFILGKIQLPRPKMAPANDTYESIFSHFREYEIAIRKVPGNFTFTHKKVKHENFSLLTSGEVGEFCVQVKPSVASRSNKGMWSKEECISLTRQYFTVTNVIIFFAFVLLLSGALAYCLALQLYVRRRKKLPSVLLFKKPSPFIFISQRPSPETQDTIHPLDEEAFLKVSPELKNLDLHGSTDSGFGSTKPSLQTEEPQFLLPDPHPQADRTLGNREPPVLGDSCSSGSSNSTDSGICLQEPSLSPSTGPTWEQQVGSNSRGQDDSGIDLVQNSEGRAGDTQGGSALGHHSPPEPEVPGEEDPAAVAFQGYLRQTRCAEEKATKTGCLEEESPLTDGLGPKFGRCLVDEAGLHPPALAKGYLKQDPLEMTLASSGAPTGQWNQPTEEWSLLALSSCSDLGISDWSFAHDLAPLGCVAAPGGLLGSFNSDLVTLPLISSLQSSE
human IL-10 receptor (hIL-10R α and β chains) on HEK-Blue IL-10 reporter cells (human), sequence (Q08334 20-325, chain 2 of 2, further chain): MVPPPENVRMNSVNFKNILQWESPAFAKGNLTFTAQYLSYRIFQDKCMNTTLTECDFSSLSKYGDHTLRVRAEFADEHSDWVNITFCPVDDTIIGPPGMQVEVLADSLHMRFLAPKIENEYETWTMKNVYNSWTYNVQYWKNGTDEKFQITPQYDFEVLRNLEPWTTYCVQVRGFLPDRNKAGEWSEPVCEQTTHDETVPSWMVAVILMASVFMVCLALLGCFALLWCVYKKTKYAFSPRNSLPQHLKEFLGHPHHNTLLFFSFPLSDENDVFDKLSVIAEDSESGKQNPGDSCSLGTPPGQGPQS

Recombinant Animal-Free Human IL-10 (Shenandoah Biotechnology, Catalog No. 100-83AF) (from UniProt P22301 19-178) (ligand)
Abs 630 (25 nM): 2.08 Abs 630
Abs 630 (100 nM): 2.04 Abs 630
